Ends that are not written are not given here.
Columns and labels:
fibrin [1] = target: T1, fibrin (Homo sapiens, UniProt P02671+P02675+P02679); assay: Fibrin binding of radiolabeled peptides; conditions: unbound material analyzed by reverse phase HPLC
T1 construct: the mixture was clotted by the addition of 10 U/mL of thrombin; After 10 minutes at 37° C., the fibrin was compressed
T1 sequence (P02671 36-629 limits assumed): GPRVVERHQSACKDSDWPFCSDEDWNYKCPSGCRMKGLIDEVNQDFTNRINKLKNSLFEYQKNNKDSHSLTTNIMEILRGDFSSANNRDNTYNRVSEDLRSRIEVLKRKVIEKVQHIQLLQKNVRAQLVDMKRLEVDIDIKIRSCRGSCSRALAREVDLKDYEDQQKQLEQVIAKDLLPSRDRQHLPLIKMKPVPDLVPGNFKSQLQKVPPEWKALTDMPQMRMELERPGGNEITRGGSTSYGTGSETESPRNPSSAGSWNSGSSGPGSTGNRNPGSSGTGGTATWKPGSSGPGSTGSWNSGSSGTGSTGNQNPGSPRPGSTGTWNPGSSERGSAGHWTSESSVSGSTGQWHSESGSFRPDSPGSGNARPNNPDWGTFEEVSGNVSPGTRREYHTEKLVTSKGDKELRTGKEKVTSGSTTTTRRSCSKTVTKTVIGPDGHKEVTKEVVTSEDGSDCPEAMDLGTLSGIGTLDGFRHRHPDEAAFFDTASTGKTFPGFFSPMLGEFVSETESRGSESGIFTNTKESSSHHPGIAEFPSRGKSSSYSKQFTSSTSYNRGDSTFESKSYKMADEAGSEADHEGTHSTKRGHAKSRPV
T1 sequence (P02675 45-491 limits assumed): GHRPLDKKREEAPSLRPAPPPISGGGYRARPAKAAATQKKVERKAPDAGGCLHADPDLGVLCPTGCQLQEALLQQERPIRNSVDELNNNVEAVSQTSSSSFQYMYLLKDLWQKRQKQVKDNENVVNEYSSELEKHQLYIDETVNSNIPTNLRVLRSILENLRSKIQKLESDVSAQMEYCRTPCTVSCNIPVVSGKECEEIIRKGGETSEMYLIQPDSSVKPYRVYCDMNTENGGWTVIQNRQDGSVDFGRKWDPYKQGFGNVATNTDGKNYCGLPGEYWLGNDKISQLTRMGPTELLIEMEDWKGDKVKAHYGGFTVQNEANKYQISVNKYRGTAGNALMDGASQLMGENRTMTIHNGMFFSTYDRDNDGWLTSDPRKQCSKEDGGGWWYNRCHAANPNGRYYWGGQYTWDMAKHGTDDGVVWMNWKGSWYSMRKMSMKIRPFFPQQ
T1 sequence (P02679 27-437 isoform P02679-2 limits assumed): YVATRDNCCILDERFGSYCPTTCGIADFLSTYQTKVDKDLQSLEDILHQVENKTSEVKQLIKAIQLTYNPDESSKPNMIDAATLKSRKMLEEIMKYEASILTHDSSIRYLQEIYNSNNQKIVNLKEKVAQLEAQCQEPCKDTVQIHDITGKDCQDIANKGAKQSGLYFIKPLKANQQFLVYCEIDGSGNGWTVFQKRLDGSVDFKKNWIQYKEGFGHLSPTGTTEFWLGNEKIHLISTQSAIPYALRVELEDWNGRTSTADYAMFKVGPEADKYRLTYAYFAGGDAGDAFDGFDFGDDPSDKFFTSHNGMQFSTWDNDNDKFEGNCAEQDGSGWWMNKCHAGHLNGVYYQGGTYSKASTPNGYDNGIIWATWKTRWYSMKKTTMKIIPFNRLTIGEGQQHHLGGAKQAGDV
Method: By reverse phase HPLC, peptides containing portions of the N- and C-terminal amino acid sequences of the DDAVY. . . peptide were separated from the full length DDAVY. . . peptide.
(§1) Binding of radiolabeled DDAVY. . . peptide prepared in accordance with Example 3 above was conducted in the presence of the following proteins: human albumin (Kabi), bovine serum albumin (BSA), hemoglobin, and cytochrome C. Fibrin binding was performed by incubating 0.5 mg/mL fibrinogen, 0.1% Triton X-100, 0.15M NaCl, 0.1M Tris, pH 7.4 (TBS), 10 mM CaCl2, and ^125 I-labeled DDAVY. . . peptide and the mixture was clotted by the addition of 10 U/mL of thrombin. After 10 minutes at 37° C., the fibrin was compressed by centrifugation (10-12,000 rpm for 10 minutes), washed thrice with TBS and the bound radioactivity was quantitated using a gamma Counter. Proteins were included in the binding mixture at these concentrations: hemoglobin (100 micromolar); human albumin (Kabi) (100 micromolar); and cytochrome C (500 micromolar). Fibrin concentration was approximately 1.0 micromolar.

fibrin [2] = target: T1, fibrin; assay: Inhibition of 125I-DDAVY. . . peptide binding to fibrin (competition)
Method: as §1
Purified recombinant platelet Factor XIII A-chains were used to inhibit the binding of DDAVY. . . peptide to fibrin. At a concentration of 0.4 mg/mL fibrinogen, 2.0 mg/mL of recombinant platelet Factor XIII inhibited the binding of DDAVY. . . peptide to fibrin by 76%. In another experiment, purified placental Factor XIII A-chains were used to inhibit DDAVY. . . peptide binding to fibrin. Binding was conducted in the presence of 1.0 mg/mL fibrinogen, 5 nanomoles of placental Factor XIII and approximately 0.05 nanomoles of the DDAVY. . . peptide. Under these conditions, the binding of the peptide to fibrin was inhibited by nearly 44%.
Binding of radiolabeled DDAVY. . . peptide (approximately 52 pmoles) was mixed with unlabeled DDAVY. . . peptide (approximately 34 nanomoles;=660-fold molar excess over radiolabeled peptide) and the mixture was bound to 0.1 mg/mL fibrin. Under these conditions, the binding of radiolabeled peptide was inhibited by nearly 83%. […] In these experiments and in the experiments conducted in the presence of XIII, binding values were corrected for nonspecific binding observed in the absence of thrombin and/or in the presence of XIII or unlabeled DDAVY. . . peptide alone.

Factor XIIIa = assay: Factor XIIIa-catalyzed crosslinking of fibrin II (SDS-PAGE); assay type: biochemical; conditions: human fibrinogen 0.27 mg/mL
Method: This example illustrates the effect of DDAVY. . . peptide and NKLIV. . . peptide on fibrin crosslinking by Factor XIIIa. Purified human fibrinogen (0.27 mg/mL) was mixed with increasing concentrations (56 micromolar to 280 micromolar) of the DDAVY. . . peptide and incubated for 15 minutes at 37° C. Then, calcium chloride was added in 0.1M Tris, pH7.4 containing 0.15M NaCl (Tris-buffered saline, TBS) to make the final calcium concentration equal 10 mM. The mixture was then clotted by the addition of 10 U/mL thrombin. Thrombin also served to activate the catalytic amounts of Factor XIII present in the fibrinogen preparation. The mixture was incubated for an additional 15 minutes at 37° C. and then solubilized in SDS-PAGE buffer containing 5% sodium dodecylsulfate (SDS), 4M urea, 10mM Tris, pH7.4, 1.0 mM ethylenediaminetetraacetic acid (EDTA), 1% 2-mercaptoethanol, and 0.001% bromophenol blue. The mixture was boiled for 5 minutes, cooled, and then separated by electrophoresis on a 4-15% linear gradient polyacrylamide gel (SDS-polyacrylamide gel electrophoresis, SDS-PAGE). After electrophoresis, the gel was stained using Coomassie Brilliant Blue and destained. Control incubations were conducted simultaneously that contained no peptide.
The reaction was also conducted as described for the DDAVY. . . peptide, except that NKLIV. . . peptide was substituted for the DDAVY. . . peptide. […]

Substance: GEVNDIKTRSWSYGQF [C-terminal portion of the DDAVY. . . peptide separated by HPLC]
- binding to fibrin (fibrin [1]): did not bind to fibrin

Substance: DDAVYLDNEKEREEYVLNDIGVIFYGEVNDIKTRSWSYGQF-amide (DDAVYLDNEKEREEYVLNDIGVIFYGEVNDIKTRSWSYGQF-NH2) [DDAVY. . . peptide]
- binding to fibrin (fibrin [1]): bound to fibrin
- inhibition of binding of radiolabeled DDAVY. . . peptide to fibrin (fibrin [2]; 1.0 mg/mL unlabeled peptide, 2.0 micrograms/mL radiolabeled peptide, 0.2 mg/mL fibrin): inhibited completely
- inhibition of binding of radiolabeled DDAVY. . . peptide to fibrin (fibrin [2]; approximately 34 nanomoles unlabeled peptide (660-fold molar excess over approximately 52 pmoles radiolabeled), 0.1 mg/mL fibrin): ~83%
- inhibition of fibrin crosslinking (Factor XIIIa; 280 micromolar peptide): ~50%
- concentration at which inhibition of fibrin crosslinking could be detected (Factor XIIIa; 10 U/mL thrombin, 10 mM calcium): around 112 micromolar

Substance: placental Factor XIII A-chains: purified placental Factor XIII A-chains
- inhibition of the binding of DDAVY. . . peptide to fibrin (fibrin [2]; 1.0 mg/mL fibrinogen, 5 nanomoles placental Factor XIII, approximately 0.05 nanomoles DDAVY. . . peptide): ~44%

Substance: KTRSWSYGQF [C-terminal portion of the DDAVY. . . peptide separated by HPLC]
- binding to fibrin (fibrin [1]): did not bind to fibrin

Substance: recombinant platelet Factor XIII: Purified recombinant platelet Factor XIII A-chains
- inhibition of the binding of DDAVY. . . peptide to fibrin (fibrin [2]; 0.4 mg/mL fibrinogen, 2.0 mg/mL recombinant platelet Factor XIII): 76%
